# In article PMC2909203, “Defining the Functional Domain of Programmed Cell Death 10 through Its Interactions with Phosphatidylinositol-3,4,5-Trisphosphate” (PLoS ONE, 2010):
# Target: the molecule itself
# Test: SEC-MALS; 0.2 to 0.4 mg/ml purified His-tag protein in 10 mM phosphate buffer, pH 7.0, 500 mM NaCl; self-association, dimer the only species
row,Protein,stoichiometry N
1,"Recombinant murine 6xHis-PDCD10 Δ5KA mutant (K169A, K172A, K179A, K183A, K186A) (natural protein, PDCD10 (CCM3), murine, full length, with five K-to-A mutations made by site-directed mutagenesis; Dimer in solution by SEC-MALS; also called Δ5KA PDCD10; mutant Δ5KA ccm3; source: E. coli BL21DE3, purified; not shown: 6xHis, N-terminal, kept) not shown",2
2,"Recombinant murine 6xHis-PDCD10, wild type (natural protein, PDCD10 (CCM3), murine, full length, amplified from a mouse fibroblast cDNA library and cloned into pMCSG7-His; 212 amino acids; Dimer in solution by SEC-MALS; also called CCM3; WT; not shown: 6xHis, N-terminal, kept) not shown",2
